The supplement of paper PMC5998384

Key:
[1] = test system: HeLa Kyoto; experiment: solubility in G1/S (NP-40 vs SDS abundance) (log2 ratio); higher = more soluble; conditions: cell cycle stage: G1/S
[2] = test system: HeLa Kyoto; experiment: solubility change mitosis vs G1/S (difference of NP-40 vs SDS log2 ratios) (log2 ratio difference); higher = more soluble in mitosis
[3] = test system: HeLa Kyoto; experiment: thermal stability score vs G1/S (z-score of summed log2 fold changes over temperatures); higher = more thermally stable than in G1/S
[4] = cell cycle stage: early G1 (4.5 h after nocodazole release)
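For solubility change mitosis vs G1/S (difference of NP-40 vs SDS log2 ratios) in this document: synchronized HeLa Kyoto cells (double thymidine block for G1/S, nocodazole release for mitosis), protein amounts in NP-40 versus SDS lysates quantified by mass spectrometry, three biological replicates.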
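For solubility in G1/S (NP-40 vs SDS abundance) in this document: HeLa Kyoto cells arrested at G1/S by double thymidine block, proteins quantified by TMT10plex mass spectrometry in mild NP-40 versus SDS extracts, three biological replicates.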
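For thermal stability score vs G1/S (z-score of summed log2 fold changes over temperatures) in this document: synchronized HeLa Kyoto cells, proteins quantified by TMT10plex mass spectrometry, three biological replicates, mitosis taken 0.5 h after nocodazole release, G1/S directly after double thymidine block.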

Sequence: MEGQSSRGSRRPGTRAGLGSLPMPQGVAQTGAPSKVDSSFQLPAKKNAALGPSEPRLALAPVGPRAAMSASSEGPRLALASPRPILAPLCTPEGQKTATAHRSSSLAPTSVGQLVMSASAGPKPPPATTGSVLAPTSLGLVMPASAGPRSPPVTLGPNLAPTSRDQKQEPPASVGPKPTLAASGLSLALASEEQPPELPSTPSPVPSPVLSPTQEQALAPASTASGAASVGQTSARKRDAPAPRPLPASEGHLQPPAQTSGPTGSPPCIQTSPDPRLSPSFRARPEALHSSPEDPVLPRPPQTLPLDVGQGPSEPGTHSPGLLSPTFRPGAPSGQTVPPPLPKPPRSPSRSPSHSPNRSPCVPPAPDMALPRLGTQSTGPGRCLSPNLQAQEAPAPVTTSSSTSTLSSSPWSAQPTWKSDPGFRITVVTWNVGTAMPPDDVTSLLHLGGGDDSDGADMIAIGLQEVNSMLNKRLKDALFTDQWSELFMDALGPFNFVLVSSVRMQGVILLLFAKYYHLPFLRDVQTDCTRTGLGGYWGNKGGVSVRLAAFGHMLCFLNCHLPAHMDKAEQRKDNFQTILSLQQFQGPGAQGILDHDLVFWFGDLNFRIESYDLHFVKFAIDSDQLHQLWEKDQLNMAKNTWPILKGFQEGPLNFAPTFKFDVGTNKYDTSAKKRKPAWTDRILWKVKAPGGGPSPSGRKSHRLQVTQHSYRSHMEYTVSDHKPVAAQFLLQFAFRDDMPLVRLEVADEWVRPEQAVVRYRMETVFARSSWDWIGLYRVGFRHCKDYVAYVWAKHEDVDGNTYQVTFSEESLPKGHGDFILGYYSHNHSILIGITEPFQISLPSSELASSSTDSSGTSSEGEDDSTLELLAPKSRSPSPGKSKRHRSRSPGLARFPGLALRPSSRERRGASRSPSPQSRRLSRVAPDRSSNGSSRGSSEEGPSGLPGPWAFPPAVPRSLGLLPALRLETVDPGGGGSWGPDREALAPNSLSPSPQGHRGLEEGGLGP [INPP5J]
- solubility in G1/S (log2) [1]: 0.0932
- solubility change mitosis (log2) [2]: -0.115
- thermal stability score [3, 4]: 0.193
- thermal stability score ([3]; cell cycle stage: mitosis): 0.518

Sequence: MESGGRPSLCQFILLGTTSVVTAALYSVYRQKARVSQELKGAKKVHLGEDLKSILSEAPGKCVPYAVIEGAVRSVKETLNSQFVENCKGVIQRLTLQEHKMVWNRTTHLWNDCSKIIHQRTNTVPFDLVPHEDGVDVAVRVLKPLDSVDLGLETVYEKFHPSIQSFTDVIGHYISGERPKGIQETEEMLKVGATLTGVGELVLDNNSVRLQPPKQGMQYYLSSQDFDSLLQRQESSVRLWKVLALVFGFATCATLFFILRKQYLQRQERLRLKQMQEEFQEHEAQLLSRAKPEDRESLKSACVVCLSSFKSCVFLECGHVCSCTECYRALPEPKKCPICRQAITRVIPLYNS [MUL1]
- solubility in G1/S (log2) [1]: 0.127
- solubility change mitosis (log2) [2]: -0.00588
- thermal stability score [3, 4]: -0.138
- thermal stability score ([3]; cell cycle stage: mitosis): 0.791

Sequence: MESSSSDYYNKDNEEESLLANVASLRHELKITEWSLQSLGEELSSVSPSENSDYAPNPSRSEKLILDVQPSHPGLLNYSPYENVCKISGSSTDFQKKPRDKMFSSSAPVDQEIKSLREKLNKLRQQNACLVTQNHSLMTKFESIHFELTQSRAKVSMLESAQQQAASVPILEEQIINLEAEVSAQDKVLREAENKLEQSQKMVIEKEQSLQESKEECIKLKVDLLEQTKQGKRAERQRNEALYNAEELSKAFQQYKKKVAEKLEKVQAEEEILERNLTNCEKENKRLQERCGLYKSELEILKEKLRQLKEENNNGKEKLRIMAVKNSEVMAQLTESRQSILKLESELENKDEILRDKFSLMNENRELKVRVAAQNERLDLCQQEIESSRVELRSLEKIISQLPLKRELFGFKSYLSKYQMSSFSNKEDRCIGCCEANKLVISELRIKLAIKEAEIQKLHANLTANQLSQSLITCNDSQESSKLSSLETEPVKLGGHQVESVKDQNQHTMNKQYEKERQRLVTGIEELRTKLIQIEAENSDLKVNMAHRTSQFQLIQEELLEKASNSSKLESEMTKKCSQLLTLEKQLEEKIVAYSSIAAKNAELEQELMEKNEKIRSLETNINTEHEKICLAFEKAKKIHLEQHKEMEKQIERLEAQLEKKDQQFKEQEKTMSMLQQDIICKQHHLESLDRLLTESKGEMKKENMKKDEALKALQNQVSEETIKVRQLDSALEICKEELVLHLNQLEGNKEKFEKQLKKKSEEVYCLQKELKIKNHSLQETSEQNVILQHTLQQQQQMLQQETIRNGELEDTQTKLEKQVSKLEQELQKQRESSAEKLRKMEEKCESAAHEADLKRQKVIELTGTARQVKIEMDQYKEELSKMEKEIMHLKRDGENKAMHLSQLDMILDQTKTELEKKTNAVKELEKLQHSTETELTEALQKREVLETELQNAHGELKSTLRQLQELRDVLQKAQLSLEEKYTTIKDLTAELRECKMEIEDKKQELLEMDQALKERNWELKQRAAQVTHLDMTIREHRGEMEQKIIKLEGTLEKSELELKECNKQIESLNDKLQNAKEQLREKEFIMLQNEQEISQLKKEIERTQQRMKEMESVMKEQEQYIATQYKEAIDLGQELRLTREQVQNSHTELAEARHQQVQAQREIERLSSELEDMKQLSKEKDAHGNHLAEELGASKVREAHLEARMQAEIKKLSAEVESLKEAYHMEMISHQENHAKWKISADSQKSSVQQLNEQLEKAKLELEEAQDTVSNLHQQVQDRNEVIEAANEALLTKESELTRLQAKISGHEKAEDIKFLPAPFTSPTEIMPDVQDPKFAKCFHTSFSKCTKLRRSISASDLTFKIHGDEDLSEELLQDLKKMQLEQPSTLEESHKNLTYTQPDSFKPLTYNLEADSSENNDFNTLSGMLRYINKEVRLLKKSSMQTGAGLNQGENV [CCDC18]
- solubility in G1/S (log2) [1]: 0.155
- solubility change mitosis (log2) [2]: 0.237
- thermal stability score [3, 4]: -0.388
- thermal stability score ([3]; cell cycle stage: mitosis): -0.856

Sequence: MEVRKLSISWQFLIVLVLILQILSALDFDPYRVLGVSRTASQADIKKAYKKLAREWHPDKNKDPGAEDKFIQISKAYEILSNEEKRSNYDQYGDAGENQGYQKQQQQREYRFRHFHENFYFDESFFHFPFNSERRDSIDEKYLLHFSHYVNEVVPDSFKKPYLIKITSDWCFSCIHIEPVWKEVIQELEELGVGIGVVHAGYERRLAHHLGAHSTPSILGIINGKISFFHNAVVRENLRQFVESLLPGNLVEKVTNKNYVRFLSGWQQENKPHVLLFDQTPIVPLLYKLTAFAYKDYLSFGYVYVGLRGTEEMTRRYNINIYAPTLLVFKEHINRPADVIQARGMKKQIIDDFITRNKYLLAARLTSQKLFHELCPVKRSHRQRKYCVVLLTAETTKLSKPFEAFLSFALANTQDTVRFVHVYSNRQQEFADTLLPDSEAFQGKSAVSILERRNTAGRVVYKTLEDPWIGSESDKFILLGYLDQLRKDPALLSSEAVLPDLTDELAPVFLLRWFYSASDYISDCWDSIFHNNWREMMPLLSLIFSALFILFGTVIVQAFSDSNDERESSPPEKEEAQEKTGKTEPSFTKENSSKIPKKGFVEVTELTDVTYTSNLVRLRPGHMNVVLILSNSTKTSLLQKFALEVYTFTGSSCLHFSFLSLDKHREWLEYLLEFAQDAAPIPNQYDKHFMERDYTGYVLALNGHKKYFCLFKPQKTVEEEEAIGSCSDVDSSLYLGESRGKPSCGLGSRPIKGKLSKLSLWMERLLEGSLQRFYIPSWPELD [DNAJC16]
- solubility in G1/S (log2) [1]: -0.398
- solubility change mitosis (log2) [2]: 1.48e-05
- thermal stability score [3, 4]: -0.236
- thermal stability score ([3]; cell cycle stage: mitosis): -0.485

Sequence: MGFGSDLKNSHEAVLKLQDWELRLLETVKKFMALRIKSDKEYASTLQNLCNQVDKESTVQMNYVSNVSKSWLLMIQQTEQLSRIMKTHAEDLNSGPLHRLTMMIKDKQQVKKSYIGVHQQIEAEMIKVTKTELEKLKCSYRQLIKEMNSAKEKYKEALAKGKETEKAKERYDKATMKLHMLHNQYVLALKGAQLHQNQYYDITLPLLLDSLQKMQEEMIKALKGIFDEYSQITSLVTEEIVNVHKEIQMSVEQIDPSTEYNNFIDVHRTTAAKEQEIEFDTSLLEENENLQANEIMWNNLTAESLQVMLKTLAEELMQTQQMLLNKEEAVLELEKRIEESSETCEKKSDIVLLLSQKQALEELKQSVQQLRCTEAKFSAQKELLEQKVQENDGKEPPPVVNYEEDARSVTSMERKERLSKFESIRHSIAGIIRSPKSALGSSALSDMISISEKPLAEQDWYHGAIPRIEAQELLKKQGDFLVRESHGKPGEYVLSVYSDGQRRHFIIQYVDNMYRFEGTGFSNIPQLIDHHYTTKQVITKKSGVVLLNPIPKDKKWILSHEDVILGELLGKGNFGEVYKGTLKDKTSVAVKTCKEDLPQELKIKFLQEAKILKQYDHPNIVKLIGVCTQRQPVYIIMELVSGGDFLTFLRRKKDELKLKQLVKFSLDAAAGMLYLESKNCIHRDLAARNCLVGENNVLKISDFGMSRQEDGGVYSSSGLKQIPIKWTAPEALNYGRYSSESDVWSFGILLWETFSLGVCPYPGMTNQQAREQVERGYRMSAPQHCPEDISKIMMKCWDYKPENRPKFSELQKELTIIKRKLT [FER]
- solubility in G1/S (log2) [1]: -0.0779
- solubility change mitosis (log2) [2]: -0.106
- thermal stability score [3, 4]: -0.138
- thermal stability score ([3]; cell cycle stage: mitosis): -0.342

Sequence: MGFNLTFHLSYKFRLLLLLTLCLTVVGWATSNYFVGAIQEIPKAKEFMANFHKTLILGKGKTLTNEASTKKVELDNCPSVSPYLRGQSKLIFKPDLTLEEVQAENPKVSRGRYRPQECKALQRVAILVPHRNREKHLMYLLEHLHPFLQRQQLDYGIYVIHQAEGKKFNRAKLLNVGYLEALKEENWDCFIFHDVDLVPENDFNLYKCEEHPKHLVVGRNSTGYRLRYSGYFGGVTALSREQFFKVNGFSNNYWGWGGEDDDLRLRVELQRMKISRPLPEVGKYTMVFHTRDKGNEVNAERMKLLHQVSRVWRTDGLSSCSYKLVSVEHNPLYINITVDFWFGA [B4GALT4]
- solubility in G1/S (log2) [1]: 0.167
- solubility change mitosis (log2) [2]: -0.14
- thermal stability score [3, 4]: -0.773
- thermal stability score ([3]; cell cycle stage: mitosis): -0.781

Sequence: MGKRDNRVAYMNPIAMARSRGPIQSSGPTIQDYLNRPRPTWEEVKEQLEKKKKGSKALAEFEEKMNENWKKELEKHREKLLSGSESSSKKRQRKKKEKKKSGRYSSSSSSSSDSSSSSSDSEDEDKKQGKRRKKKKNRSHKSSESSMSETESDSKDSLKKKKKSKDGTEKEKDIKGLSKKRKMYSEDKPLSSESLSESEYIEEVRAKKKKSSEEREKATEKTKKKKKHKKHSKKKKKKAASSSPDSP [FAM133B]
- solubility in G1/S (log2) [1]: -1.16
- solubility change mitosis (log2) [2]: 0.889
- thermal stability score [3, 4]: -5.3
- thermal stability score ([3]; cell cycle stage: mitosis): -3.34

Sequence: MIPVSLVVVVVGGWTVVYLTDLVLKSSVYFKHSYEDWLENNGLSISPFHIRWQTAVFNRAFYSWGRRKARMLYQWFNFGMVFGVIAMFSSFFLLGKTLMQTLAQMMADSPSSYSSSSSSSSSSSSSSSSSSSSSSSLHNEQVLQVVVPGINLPVNQLTYFFTAVLISGVVHEIGHGIAAIREQVRFNGFGIFLFIIYPGAFVDLFTTHLQLISPVQQLRIFCAGIWHNFVLALLGILALVLLPVILLPFYYTGVGVLITEVAEDSPAIGPRGLFVGDLVTHLQDCPVTNVQDWNECLDTIAYEPQIGYCISASTLQQLSFPVRAYKRLDGSTECCNNHSLTDVCFSYRNNFNKRLHTCLPARKAVEATQVCRTNKDCKKSSSSSFCIIPSLETHTRLIKVKHPPQIDMLYVGHPLHLHYTVSITSFIPRFNFLSIDLPVVVETFVKYLISLSGALAIVNAVPCFALDGQWILNSFLDATLTSVIGDNDVKDLIGFFILLGGSVLLAANVTLGLWMVTAR [MBTPS2]
- solubility in G1/S (log2) [1]: -0.23
- solubility change mitosis (log2) [2]: -0.109
- thermal stability score [3, 4]: -0.0953
- thermal stability score ([3]; cell cycle stage: mitosis): -0.633

Sequence: MKAGATSMWASCCGLLNEVMGTGAVRGQQSAFAGATGPFRFTPNPEFSTYPPAATEGPNIVCKACGLSFSVFRKKHVCCDCKKDFCSVCSVLQENLRRCSTCHLLQETAFQRPQLMRLKVKDLRQYLILRNIPIDTCREKEDLVDLVLCHHGLGSEDDMDTSSLNSSRSQTSSFFTRSFFSNYTAPSATMSSFQGELMDGDQTSRSGVPAQVQSEITSANTEDDDDDDDEDDDDEEENAEDRNPGLSKERVRASLSDLSSLDDVEGMSVRQLKEILARNFVNYSGCCEKWELVEKVNRLYKENEENQKSYGERLQLQDEEDDSLCRICMDAVIDCVLLECGHMVTCTKCGKRMSECPICRQYVVRAVHVFKS [RNF34]
- solubility in G1/S (log2) [1]: 0.0303
- solubility change mitosis (log2) [2]: -0.0561
- thermal stability score [3, 4]: 0.687
- thermal stability score ([3]; cell cycle stage: mitosis): 0.834
